Patent publication US6720153B1, “Luciferase reporter bioassay of parathyroid hormone compounds” (Aventis Pharmaceuticals Inc., priority 1998, dated 2004)

Target: T1, PTH receptor (Homo sapiens, UniProt Q03431)
T1 construct: expressed in transfected cells; host or cells: HEK-293
T1 sequence (Q03431 27-593): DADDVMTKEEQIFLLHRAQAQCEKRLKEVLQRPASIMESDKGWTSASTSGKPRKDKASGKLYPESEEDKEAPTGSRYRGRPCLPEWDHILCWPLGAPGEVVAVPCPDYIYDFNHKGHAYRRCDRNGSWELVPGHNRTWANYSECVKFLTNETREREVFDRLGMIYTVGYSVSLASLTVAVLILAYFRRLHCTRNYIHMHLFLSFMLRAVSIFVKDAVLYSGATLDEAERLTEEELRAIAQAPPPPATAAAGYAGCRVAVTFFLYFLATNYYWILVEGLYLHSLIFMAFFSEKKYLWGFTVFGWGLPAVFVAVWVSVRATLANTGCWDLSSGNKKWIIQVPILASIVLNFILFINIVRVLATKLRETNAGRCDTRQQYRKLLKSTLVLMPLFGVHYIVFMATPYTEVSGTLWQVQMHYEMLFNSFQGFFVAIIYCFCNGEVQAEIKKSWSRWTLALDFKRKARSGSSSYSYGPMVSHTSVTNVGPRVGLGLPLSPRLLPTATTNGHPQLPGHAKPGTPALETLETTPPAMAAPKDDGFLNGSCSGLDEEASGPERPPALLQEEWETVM
Assay: Luciferase reporter assay in hPTH receptor-expressing HEK-293 cells
Assay type: cell-based
Conditions: clones of PTH receptor expressing HEK-293 cells bearing pMCL3zeo luciferase reporter gene; clones selected for assay development
Source text: This cell line is obtained as described by Pines et al., Endocrinology, 1994, 135(4), 1713-1716, incorporated herein by reference.
The firefly luciferase reporter gene bearing the cAMP responsive elements is amplified by PCR from the pDMC16LUC vector using the method of Spengler et al., Nature, 1993, 365: 170-175, incorporated herein by reference. The PCR product containing the MMTV promoter, sixteen cAMP responsive elements and the luciferase gene is inserted into the zeocin resistant vector (pUTSV1 from InVitrogen). The final vector, termed pMCL3zeo, is then introduced into PTH receptor expressing HEK-293 cells using the lipofectamine method (reagents and method obtained from Gibco/BRL). Cells incorporating the luciferase reporter gene are selected by including zeocin in the culture medium. By limited dilution, different cell clones are isolated and expanded. These clones are tested for their responsiveness to PTH in terms of luciferase expression.
hPTH receptor-expressing HEK-293 cells bearing the luciferase reporter gene are cultured to 80-90% confluency. […] The luciferase activity in the lysates is measured by the addition of the luciferin substrate (Promega assay kit) to effect light production. The output of light is measured in a Wallac Trilux microbeta plate reader.

## parathyroid hormone [PTH]
  luciferase induction: 5-6 fold
